Results on 23 substances are retold here after US6100053A, “Microbial transglutaminases, their production and use” (priority 1994, dated 2000).

The target of the assay is α-casein.
Take “transglutaminase preparation (culture broth) of Fusarium merismoides (pool or library)”: the Units/ml (putrescine assay) is 0.16 Units/ml.
“transglutaminase preparation (culture broth) of Fusarium redolens (pool or library)” came in with a Units/ml (putrescine assay) of 0.16 Units/ml.
Turning to “transglutaminase preparation (culture broth) of Gymnopilus junonius (pool or library)”, the Units/ml (putrescine assay) is 0.2 Units/ml.
The substance “transglutaminase preparation (culture broth) of Halosphaeriopsis mediosetigera (pool or library)” had a Units/ml (putrescine assay) of 0.34 Units/ml.
In the case of “transglutaminase preparation (culture broth) of Hortea werneckii (pool or library)” it was 0.95 Units/ml; in that of “transglutaminase preparation (culture broth) of Humicola alopallonella (pool or library)”, 0.76 Units/ml.
The figure for “transglutaminase preparation (culture broth) of Hygrophoropsis aurantiaca (pool or library)” is 0.17 Units/ml; for “transglutaminase preparation (culture broth) of Hymenochaete corticola (pool or library)” it is 1.31 Units/ml; for “transglutaminase preparation (culture broth) of Hypholoma fasciculare (pool or library)” it is 0.14 Units/ml.
In the case of “transglutaminase preparation (culture broth) of Kuhneromyces variabilis (pool or library)” it was 0.14 Units/ml.
Substance “transglutaminase preparation (culture broth) of Lignincola sp. (pool or library)” showed a Units/ml (putrescine assay) of 0.15 Units/ml.
The figure for “transglutaminase preparation (culture broth) of Lulworthia uniseptata (pool or library)” is 0.36 Units/ml.
The figure for “transglutaminase preparation (culture broth) of Lyophyllum sp. (pool or library)” is 0.25 Units/ml.
In the case of “transglutaminase preparation (culture broth) of Monodictys pelagica (pool or library)” it was 2.31 Units/ml; in that of “transglutaminase preparation (culture broth) of Mucor aligarensis (pool or library)”, 0.31 Units/ml.
As to “transglutaminase preparation (culture broth) of Mucor luteus (pool or library)”, the Units/ml (putrescine assay) was found to be 0.34 Units/ml.
The figure for “transglutaminase preparation (culture broth) of Myrothecium roridum (pool or library)” is 0.13 Units/ml.
The figure for “transglutaminase preparation (culture broth) of Neosartorya quadricineta (pool or library)” is 0.22 Units/ml; for “transglutaminase preparation (culture broth) of Nidula sp. (pool or library)” it is 0.14 Units/ml.
The figure for “transglutaminase preparation (culture broth) of Nodulisporium sp. (pool or library)” is 1.2 Units/ml.
Turning to “transglutaminase preparation (culture broth) of Panaeolus papilionaceus (pool or library)”, the Units/ml (putrescine assay) is 0.15 Units/ml.
The figure for “transglutaminase preparation (culture broth) of Pholiota jahnii (pool or library)” is 0.21 Units/ml; for “transglutaminase preparation (culture broth) of Pleurotus dryinus (pool or library)” it is 0.22 Units/ml.
